Experimental data reported in US20180118815A1.

Experiments:
[1] = target: HIV-1 Env gp140 89.6 (HIV-1 isolate 89.6) (UniProt Q73372); test: ELISA on coated gp140 89.6 and SPR (Biacore X100, single-cycle, bivalent model)
[2] = target: HIV-1 Env gp140 89.6 (HIV-1 isolate 89.6) (UniProt Q73372); test: ELISA, gp140 89.6 coated at 2 µg/ml, detection with HRP goat anti-human IgG (Fab-specific)
[3] = target: HIV-1 Env gp140 89.6 (HIV-1 isolate 89.6) (UniProt Q73372); test: SPR, Biacore X100, single-cycle, analytes at 0.1-1,000 nM on gp140 89.6, bivalent binding model

Row | Substance | fold higher affinity than MD [1] [fold] | EC50 (read off the curve) [2] [nM] | Kd [3] [µM] | koff [3] [s⁻¹] | kon [3] [M⁻¹ s⁻¹]
1 | MD13 (MD mutant with S64E/S66V in CH1 and S69L/T71S in CK) | 1000 | 1 to 10 | 0.017 | 0.00081 | 47000
2 | MD (mD1.22-CH1/m36.4-CK heterodimer, wild-type CH1-CK) |  |  | 16 | 0.077 | 4800
